Sequences and labels used below:
B1: MtbCbs L454A (enzyme)
chain: MRIAQHISELIGGTPLVRLNSVVPDGAGTVAAKVEYLNPGGSSKDRIAVKMIEAAEASGQLKPGGTIVEPTSGNTGVGLALVAQRRGYKCVFVCPDKVSEDKRNVLIAYGAEVVVCPTAVPPHDPASYYSVSDRLVRDIDGAWKPDQYANPEGPASHYVTTGPEIWADTEGKVTHFVAGIGTGGTITGAGRYLKEVSGGRVRIVGADPEGSVYSGGAGRPYLVEGVGEDFWPAAYDPSVPDEIIAVSDSDSFDMTRRLAREEAMLVGGSCGMAVVAALKVAEEAGPDALIVVLLPDGGRGYMSKIFNDAWMSSYGFLRSRLDGSTEQSTVGDVLRRKSGALPALVHTHPSETVRDAIGILREYGVSQMPVVGAEPPVMAGEVAGSVSERELLSAVFEGRAKLADAVSAHMSPPLRMIGAGELVSAAGKALRDWDALMVVEEGKPVGVITRYDLAGFLSEGAGRR
B2: MtbCbs S393R (enzyme)
chain: MRIAQHISELIGGTPLVRLNSVVPDGAGTVAAKVEYLNPGGSSKDRIAVKMIEAAEASGQLKPGGTIVEPTSGNTGVGLALVAQRRGYKCVFVCPDKVSEDKRNVLIAYGAEVVVCPTAVPPHDPASYYSVSDRLVRDIDGAWKPDQYANPEGPASHYVTTGPEIWADTEGKVTHFVAGIGTGGTITGAGRYLKEVSGGRVRIVGADPEGSVYSGGAGRPYLVEGVGEDFWPAAYDPSVPDEIIAVSDSDSFDMTRRLAREEAMLVGGSCGMAVVAALKVAEEAGPDALIVVLLPDGGRGYMSKIFNDAWMSSYGFLRSRLDGSTEQSTVGDVLRRKSGALPALVHTHPSETVRDAIGILREYGVSQMPVVGAEPPVMAGEVAGSVSERELLRAVFEGRAKLADAVSAHMSPPLRMIGAGELVSAAGKALRDWDALMVVEEGKPVGVITRYDLLGFLSEGAGRR
B3: MtbCbs E388A (enzyme)
chain: MRIAQHISELIGGTPLVRLNSVVPDGAGTVAAKVEYLNPGGSSKDRIAVKMIEAAEASGQLKPGGTIVEPTSGNTGVGLALVAQRRGYKCVFVCPDKVSEDKRNVLIAYGAEVVVCPTAVPPHDPASYYSVSDRLVRDIDGAWKPDQYANPEGPASHYVTTGPEIWADTEGKVTHFVAGIGTGGTITGAGRYLKEVSGGRVRIVGADPEGSVYSGGAGRPYLVEGVGEDFWPAAYDPSVPDEIIAVSDSDSFDMTRRLAREEAMLVGGSCGMAVVAALKVAEEAGPDALIVVLLPDGGRGYMSKIFNDAWMSSYGFLRSRLDGSTEQSTVGDVLRRKSGALPALVHTHPSETVRDAIGILREYGVSQMPVVGAEPPVMAGEVAGSVSARELLSAVFEGRAKLADAVSAHMSPPLRMIGAGELVSAAGKALRDWDALMVVEEGKPVGVITRYDLLGFLSEGAGRR
B4: MtbCbs R450A (enzyme)
chain: MRIAQHISELIGGTPLVRLNSVVPDGAGTVAAKVEYLNPGGSSKDRIAVKMIEAAEASGQLKPGGTIVEPTSGNTGVGLALVAQRRGYKCVFVCPDKVSEDKRNVLIAYGAEVVVCPTAVPPHDPASYYSVSDRLVRDIDGAWKPDQYANPEGPASHYVTTGPEIWADTEGKVTHFVAGIGTGGTITGAGRYLKEVSGGRVRIVGADPEGSVYSGGAGRPYLVEGVGEDFWPAAYDPSVPDEIIAVSDSDSFDMTRRLAREEAMLVGGSCGMAVVAALKVAEEAGPDALIVVLLPDGGRGYMSKIFNDAWMSSYGFLRSRLDGSTEQSTVGDVLRRKSGALPALVHTHPSETVRDAIGILREYGVSQMPVVGAEPPVMAGEVAGSVSERELLSAVFEGRAKLADAVSAHMSPPLRMIGAGELVSAAGKALRDWDALMVVEEGKPVGVITAYDLLGFLSEGAGRR
B5: MtbCbs I357A (enzyme)
chain: MRIAQHISELIGGTPLVRLNSVVPDGAGTVAAKVEYLNPGGSSKDRIAVKMIEAAEASGQLKPGGTIVEPTSGNTGVGLALVAQRRGYKCVFVCPDKVSEDKRNVLIAYGAEVVVCPTAVPPHDPASYYSVSDRLVRDIDGAWKPDQYANPEGPASHYVTTGPEIWADTEGKVTHFVAGIGTGGTITGAGRYLKEVSGGRVRIVGADPEGSVYSGGAGRPYLVEGVGEDFWPAAYDPSVPDEIIAVSDSDSFDMTRRLAREEAMLVGGSCGMAVVAALKVAEEAGPDALIVVLLPDGGRGYMSKIFNDAWMSSYGFLRSRLDGSTEQSTVGDVLRRKSGALPALVHTHPSETVRDAAGILREYGVSQMPVVGAEPPVMAGEVAGSVSERELLSAVFEGRAKLADAVSAHMSPPLRMIGAGELVSAAGKALRDWDALMVVEEGKPVGVITRYDLLGFLSEGAGRR
notes: also called I357A mutant
B6: MtbCbs mutant lacking the Bateman module (MtbCbs 1-317) (domain or fragment)
chain: MRIAQHISELIGGTPLVRLNSVVPDGAGTVAAKVEYLNPGGSSKDRIAVKMIEAAEASGQLKPGGTIVEPTSGNTGVGLALVAQRRGYKCVFVCPDKVSEDKRNVLIAYGAEVVVCPTAVPPHDPASYYSVSDRLVRDIDGAWKPDQYANPEGPASHYVTTGPEIWADTEGKVTHFVAGIGTGGTITGAGRYLKEVSGGRVRIVGADPEGSVYSGGAGRPYLVEGVGEDFWPAAYDPSVPDEIIAVSDSDSFDMTRRLAREEAMLVGGSCGMAVVAALKVAEEAGPDALIVVLLPDGGRGYMSKIFNDAWMSSYGFL
B7: MtbCbs W433F (enzyme)
chain: MRIAQHISELIGGTPLVRLNSVVPDGAGTVAAKVEYLNPGGSSKDRIAVKMIEAAEASGQLKPGGTIVEPTSGNTGVGLALVAQRRGYKCVFVCPDKVSEDKRNVLIAYGAEVVVCPTAVPPHDPASYYSVSDRLVRDIDGAWKPDQYANPEGPASHYVTTGPEIWADTEGKVTHFVAGIGTGGTITGAGRYLKEVSGGRVRIVGADPEGSVYSGGAGRPYLVEGVGEDFWPAAYDPSVPDEIIAVSDSDSFDMTRRLAREEAMLVGGSCGMAVVAALKVAEEAGPDALIVVLLPDGGRGYMSKIFNDAWMSSYGFLRSRLDGSTEQSTVGDVLRRKSGALPALVHTHPSETVRDAIGILREYGVSQMPVVGAEPPVMAGEVAGSVSERELLSAVFEGRAKLADAVSAHMSPPLRMIGAGELVSAAGKALRDFDALMVVEEGKPVGVITRYDLLGFLSEGAGRR
B8: MtbCbs E390A (enzyme)
chain: MRIAQHISELIGGTPLVRLNSVVPDGAGTVAAKVEYLNPGGSSKDRIAVKMIEAAEASGQLKPGGTIVEPTSGNTGVGLALVAQRRGYKCVFVCPDKVSEDKRNVLIAYGAEVVVCPTAVPPHDPASYYSVSDRLVRDIDGAWKPDQYANPEGPASHYVTTGPEIWADTEGKVTHFVAGIGTGGTITGAGRYLKEVSGGRVRIVGADPEGSVYSGGAGRPYLVEGVGEDFWPAAYDPSVPDEIIAVSDSDSFDMTRRLAREEAMLVGGSCGMAVVAALKVAEEAGPDALIVVLLPDGGRGYMSKIFNDAWMSSYGFLRSRLDGSTEQSTVGDVLRRKSGALPALVHTHPSETVRDAIGILREYGVSQMPVVGAEPPVMAGEVAGSVSERALLSAVFEGRAKLADAVSAHMSPPLRMIGAGELVSAAGKALRDWDALMVVEEGKPVGVITRYDLLGFLSEGAGRR
B9: MtbCbs D432N (enzyme)
chain: MRIAQHISELIGGTPLVRLNSVVPDGAGTVAAKVEYLNPGGSSKDRIAVKMIEAAEASGQLKPGGTIVEPTSGNTGVGLALVAQRRGYKCVFVCPDKVSEDKRNVLIAYGAEVVVCPTAVPPHDPASYYSVSDRLVRDIDGAWKPDQYANPEGPASHYVTTGPEIWADTEGKVTHFVAGIGTGGTITGAGRYLKEVSGGRVRIVGADPEGSVYSGGAGRPYLVEGVGEDFWPAAYDPSVPDEIIAVSDSDSFDMTRRLAREEAMLVGGSCGMAVVAALKVAEEAGPDALIVVLLPDGGRGYMSKIFNDAWMSSYGFLRSRLDGSTEQSTVGDVLRRKSGALPALVHTHPSETVRDAIGILREYGVSQMPVVGAEPPVMAGEVAGSVSERELLSAVFEGRAKLADAVSAHMSPPLRMIGAGELVSAAGKALRNWDALMVVEEGKPVGVITRYDLLGFLSEGAGRR
B10: MtbCbs S411A (enzyme)
chain: MRIAQHISELIGGTPLVRLNSVVPDGAGTVAAKVEYLNPGGSSKDRIAVKMIEAAEASGQLKPGGTIVEPTSGNTGVGLALVAQRRGYKCVFVCPDKVSEDKRNVLIAYGAEVVVCPTAVPPHDPASYYSVSDRLVRDIDGAWKPDQYANPEGPASHYVTTGPEIWADTEGKVTHFVAGIGTGGTITGAGRYLKEVSGGRVRIVGADPEGSVYSGGAGRPYLVEGVGEDFWPAAYDPSVPDEIIAVSDSDSFDMTRRLAREEAMLVGGSCGMAVVAALKVAEEAGPDALIVVLLPDGGRGYMSKIFNDAWMSSYGFLRSRLDGSTEQSTVGDVLRRKSGALPALVHTHPSETVRDAIGILREYGVSQMPVVGAEPPVMAGEVAGSVSERELLSAVFEGRAKLADAVSAHMAPPLRMIGAGELVSAAGKALRDWDALMVVEEGKPVGVITRYDLLGFLSEGAGRR

The first data set deals with the molecule itself. In words: SEC. Background: SEC sorts molecules by how far they enter the pores of the column.
Regarding B1, the binding result was “binds”.

Regarding B2, the binding result is listed as “binds”.

In the case of B3, the binding result is given as “binds”.

In the case of B4, the binding result is “binds”.

On to B5, for which the binding result is given as “binds”.

For orientation: stoichiometry N means a count of units in the complex or per binding partner. On to B6, for which the “stoichiometry N” value came to 2.

Another data set concerns the molecule itself.
Assay: not given
For B7, the “stoichiometry N” value is 4.

In the case of B8, the “stoichiometry N” value was determined as 4.

Take B9: the “stoichiometry N” value is 4.

Take B10: the “stoichiometry N” value came out at 4.

Values taken from paper PMC9232105, “S-Adenosylmethionine–responsive cystathionine β-synthase modulates sulfur metabolism and redox balance in Mycobacterium tuberculosis” (Science Advances, 2022).
